Results reported in US20220106406A1 (UNIVERSITY OF KENTUCKY RESEARCH FOUNDATION, published 2022).

T1: GFP-PRL-1 (UniProt Q93096 1-170)
T1 construct: Expressed in HCT116 cells, fixed and permeabilized for immunofluorescence; also called CMV:GFP-PRL-1
T1 sequence (looked up): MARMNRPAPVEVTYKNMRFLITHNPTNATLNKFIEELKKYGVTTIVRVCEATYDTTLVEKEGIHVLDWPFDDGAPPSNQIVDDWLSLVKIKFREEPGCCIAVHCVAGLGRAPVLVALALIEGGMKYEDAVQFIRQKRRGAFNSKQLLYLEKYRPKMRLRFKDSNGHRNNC

T2: GFP-PRL-2 (UniProt Q12974 1-164)
T2 construct: Expressed in HCT116 cells, fixed and permeabilized for immunofluorescence; also called CMV:GFP-PRL-2
T2 sequence (looked up): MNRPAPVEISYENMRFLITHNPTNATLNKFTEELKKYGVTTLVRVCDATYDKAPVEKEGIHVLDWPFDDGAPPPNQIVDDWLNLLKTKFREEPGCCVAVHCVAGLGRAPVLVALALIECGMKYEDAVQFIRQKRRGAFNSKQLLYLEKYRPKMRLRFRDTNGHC

T3: 3×FLAG-PRL-1 (human, UniProt Q93096 1-170)
T3 construct: Expressed in HEK293T cells, tested in cell lysate; Order of tag and PRL follows the printed name only; also called 3xFLAG-PRL-1; not shown: 3×FLAG tag from p3×FLAG-CMV-14
T3 sequence (looked up): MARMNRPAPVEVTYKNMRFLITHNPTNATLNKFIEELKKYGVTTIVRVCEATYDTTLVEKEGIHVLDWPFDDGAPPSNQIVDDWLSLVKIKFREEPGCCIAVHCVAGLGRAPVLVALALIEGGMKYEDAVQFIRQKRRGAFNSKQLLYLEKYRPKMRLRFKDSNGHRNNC

T4: 3×FLAG-PRL-2 (human, UniProt Q12974 1-164)
T4 construct: Expressed in HEK293T cells, tested in cell lysate; Order of tag and PRL follows the printed name only; also called 3xFLAG-PRL-2; not shown: 3×FLAG tag from p3×FLAG-CMV-14
T4 sequence (looked up): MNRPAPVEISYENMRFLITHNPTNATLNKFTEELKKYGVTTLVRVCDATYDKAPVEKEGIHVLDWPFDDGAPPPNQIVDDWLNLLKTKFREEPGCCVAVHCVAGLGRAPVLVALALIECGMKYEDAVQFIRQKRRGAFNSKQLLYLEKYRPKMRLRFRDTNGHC


Tests used:
[1] = target: T1, GFP-PRL-1; test: immunofluorescence on fixed, permeabilized transfected HCT116 cells
Method: (§1) HCT116 colorectal cancer cells were transfected with A—CMV:GFP, CMV:GFP-PRL-1, CMV:GFP-PRL-2, or CMV:GFP-PRL-3 for 24 hours prior to cell fixation and permeabilization. Immunofluorescence assays were completed with 1:1000 1 mg/mL NB91 followed by 1:400 Alexa Fluor® 594-AffiniPure Goat Anti-Alpaca IgG, VHH domain and show nanobodies detect PRL-3 but not PRL-1 or PRL-2.
(§2) Transfected cells were plated at 5,000 cells per well in 96-well black glass bottomed plates (Cellvis, P96-1.5H-N). All solution exchanges and imaging occurred in the 96-well plate. 24 hours post-transfection cells were fixed in 4% paraformaldehyde (VWR, AAJ61899-AK) for 15 minutes, rinsed in PBS, permeabilized for 10 minutes in 1% 100× Triton (Sigma, X100-100), and rinsed in PBS. Blocking solution of 2% BSA in PBS was applied for 1 hour to all wells. All nanobodies were diluted to 1 mg/ml in blocking solution, and further diluted 1:1000 and incubated with the cells for 1 hour at room temperature followed by five PBS washes. Detection was carried out using an anti-alpaca IgG VHH conjugated to Alexa Fluor-594 (Jackson ImmunoResearch, 128-585-232) diluted 1:400 in blocking solution, and counterstained with Hoechst, 1:1000 dilution (ThermoFisher, H3570). All wells were washed in PBS five times prior to imaging. Images were acquired with a Nikon MR confocal using the 40× water objective. […]

[2] = target: T2, GFP-PRL-2; test: as above
Method: as §1, §2

[3] = target: T3, 3×FLAG-PRL-1; test: immunoprecipitation from HEK293T lysate with nanobody-coupled Dynabeads, anti-FLAG blot
Method: (§3) HEK293T cells (˜20 million) were lysed for 30 minutes with intermittent vortexing in Pierce IP lysis buffer (Thermo 87788) supplemented with 1% protease inhibitor cocktail (IP buffer) at 500 μl per 10 million cells and spun at 12,000 rpm for 10 minutes at 4° C. to pellet cell debris. Protein concentration was quantified using the Quick Start Bradford 1× Dye Reagent (Biorad, 5000205). 150 μL of nanobody-coupled beads were washed in 1 mL of PBS for 5 minutes, precipitated, then equilibrated in 500 μL of IP buffer for 5 minutes. 2.5 mg of total extracted protein was added to the balanced nanobody-beads complex for incubation with rocking at 4° C. overnight. After washing the beads-protein complex in cold PBS four times, 50 μL 2× Laemmli Sample Buffer (Biorad, 161-0737) with 2-Mercaptoethanol (Fisher Scientific, 034461-100) was added to the beads, the mixture was boiled at 95° C. for 10 minutes, and the supernatant was collected for western blot analysis.
(§4) PRL-3 substrates remain largely undefined, in part due to insufficient tools for cell-based studies. The current commercially available PRL-3 antibodies have not been extensively validated for specificity towards PRL-3 over other PRLs. To address this, the ability of the anti-PRL-3 nanobodies to identify PRL-3 protein in cell lysate was tested. Anti-PRL-3 nanobodies were coupled to superparamagnetic Dynabeads® M-270 Epoxy beads and used in immunoprecipitation of HEK293T cells expressing either 3×FLAG-PRL-1, -2, or -3. All nanobodies selectively pulled-down 3×FLAG-PRL-3 over PRL-1 and PRL-2, as assessed by anti-FLAG immunoblot (FIGS. 7A and 9A-I). Some nanobodies were more specific to PRL-3 than others; nanobodies 4, 16, 19, and 84 pulled down small amounts of 3×FLAG-PRL-1 and/or PRL-2 (FIG. 3A). Successful nanobody coupling to Dynabeads was confirmed by the presence of 6×-His-tag in all samples (FIG. 3B). […] In total, anti-PRL-3 nanobodies 10, 26, and 91 can be used to specifically immunoprecipitate PRL-3, with no binding to PRL-1 or PRL-2.

[4] = target: T4, 3×FLAG-PRL-2; test: as above
Method: as §3, §4

| binding result [1] | binding result [2] | binding result [3] | binding result [4] | Binder |
| --- | --- | --- | --- | --- |
| no binding (tested: 1:1000 of 1 mg/mL) | no binding (tested: 1:1000 of 1 mg/mL) | no binding | no binding | NB91 (VHH, Alpaca nanobody expressed from pMES4 in E. coli; also called nanobody 91; Nanobody 91) VHH: QVQLQESGGGLVQTGGSLRLSCAASQSTFNFDVMGWYRLAPGKQREFLTSITNGGNIYYADSVKGRFTIARDDSKTTMYLEMNSLKPEDTAVYTCYGQTHKPRVTTSWGQGTQVTVSS |
|  |  | no binding | no binding | NB10 (VHH, Alpaca nanobody, C-terminal 6xHis tag intact; also called nanobody 10) VHH: QVQLQESGGGLVQTGGSLRLSCAASQSTFNFNVMGWYRLAPGKQREFLPSLTNGGNIYYADSVKGRFTIARDDSKTTTYLEMNSLKPEDTAVYTCYGQTHKPRVTTSWGQGTQVTVSS |
|  |  | no binding | no binding | NB26 (VHH, Alpaca nanobody, C-terminal 6xHis tag intact; also called nanobody 26; Nanobody 26) VHH: QVQLQESGGGLVQPGGSLKLSCVVTGLHYYTEGWFRQAPGKEREGVSCISSSDGRTDYIDSVKGRFTISEDNDNKTVYLQMNTLKPDDTGVYYCVAERGPRGSTWWETYDYWGQGTHVTVSS |
